# B1: NadR transcriptional regulator protein (NMB1843) of Neisseria meningitidis MC58, recombinant with an N-terminal histidine tag (natural protein)
# chain: MPTQSKHASINIGLIQAREALMTQFRPILNQANITDQQWRIIRLLAENGTLDFQDLANQACILRPSLTGILTRLEKAGLVVRLKPSNDQRRVFLKLTAEGEKLYEEIGEEVDERYDAIEEVLGREKMLLLKDLLAELAKIEDALNS
# notes: NadR (NMB1843), MarR family transcriptional regulator, N. meningitidis MC58; gene amplified from the MC58 genome with primers 1843-F (at the ATG) and 1843-R (past the stop codon), cloned as a 448 bp NdeI-BamHI fragment into pET15b; also called 1843 protein
# Molecular target: the molecule itself
# Test: cross-linking; in vitro cross-linking of purified NadR, cross-linked species resolved on SDS-PAGE; data not shown
protein,measurement,value
B1,stoichiometry N,2

# — paper PMC2791445, “A Novel Phase Variation Mechanism in the Meningococcus Driven by a Ligand-Responsive Repressor and Differential Spacing of Distal Promoter Elements” (PLoS Pathogens, 2009)
